# Assay results from the supplement of paper PMC7877785.
# ± gives the uncertainty stated by the source.
# Test: self-splicing fitness, log relative to wild type (ln ratio); higher = more splicing; Tetrahymena group I intron in knt gene, E. coli kanamycin selection, DiMSum; sequences stand for … in CUCUCU…GGAGGGAAAAGUUAUCAGGCAUGCACCUGGUAGCUAGUCUUUAAACCAAUAGAUUGCAUCGGUUUAAAAGGCAAGACCGUCAAAUUGCGGGAAAGGGGUCAACAGCCGUUCAGUACCAAGUCUCAGGGGAAACUUUGAGAUGGCCUUGCAAAGGGUAUGGUAAUAAGCUGACGGACAUGGUCCUAACCACGCAGCCAAGUCCUAAGUCAACAGAUCUUCUGUUGAUAUGGAUGCAGUUCACAGACUAAAUGUCGGUCGGGGAAGAUGUAUUCUUCUCAUAAGAUAUAGUCGGACCUCUCCUUAAUGGGAGCUAGCGGAUGAAGUGAUGCAACACUGGAGCCGCUGGGAACUAAUUUGUAUGCGAAAGUAUAUUGAUUAGUUUUGGAGUACUCGUGGUCG
# Method in brief: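 Six replicate transformations of E. coli BL21(DE3) with a pET-22b(+) library were grown overnight at 37°C or 30°C. The library randomised all eight P1ex-region intron nucleotides, the intron lying in the knt kanamycin-resistance gene, and plates were LB agar with or without 25 μg/mL kanamycin plus 100 μg/mL carbenicillin, 50 μM IPTG and 0.2% rhamnose. Pooled colonies were amplicon-sequenced on an Illumina HiSeq 2500, and fitness is the DiMSum error-weighted combination of wild-type-normalised replicate fold changes, kanamycin versus none.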
Sequence,self-splicing fitness (ln) (30 °C),self-splicing fitness (ln) (37 °C)
UGCCAGCAAUAUUACGUUGG,-3.91 ± 0.18,-2.22 ± 0.15
CAGUAGCAAUAUUACGAGCC,-3.88 ± 0.37,-3.14 ± 0.47
CGAUAGCAAUAUUACGGAGG,-1.28 ± 0.14,-1.17 ± 0.15
GAGCAGCAAUAUUACGCUAU,-2.73 ± 0.27,-1.93 ± 0.17
AAUAAGCAAUAUUACGCCAU,-2.76 ± 0.14,-1.75 ± 0.15
CCAAAGCAAUAUUACGAAGA,-3.61 ± 0.27,-2.2 ± 0.22
AUACAGCAAUAUUACGAUCU,-0.478 ± 0.077,-0.0165 ± 0.087
ACGGAGCAAUAUUACGACUA,-2.73 ± 0.35,-2.09 ± 0.24
UUCGAGCAAUAUUACGUCAG,-3.92 ± 0.43,0.987 ± 0.26
CUCGAGCAAUAUUACGAUCA,-2.04 ± 0.4,
GAUCAGCAAUAUUACGACCG,-1.01 ± 0.11,-0.323 ± 0.14
AAGUAGCAAUAUUACGGGGC,-3.29 ± 0.3,-3.4 ± 0.26
CGCAAGCAAUAUUACGGAAU,-3.63 ± 0.15,-2.77 ± 0.18
ACCCAGCAAUAUUACGCUUG,-3.38 ± 0.11,-2.43 ± 0.12
AAAAAGCAAUAUUACGGGGA,-1.74 ± 0.13,-1.8 ± 0.13
CCGCAGCAAUAUUACGGGUU,-3.79 ± 0.11,-2.74 ± 0.11
UUUUAGCAAUAUUACGUUAG,-1.37 ± 0.13,-2.02 ± 0.21
CACUAGCAAUAUUACGAGAU,-3.87 ± 0.39,-2.97 ± 0.2
UCGUAGCAAUAUUACGGGCA,-0.422 ± 0.14,-0.0787 ± 0.13
GUGCAGCAAUAUUACGUUCA,0.191 ± 0.072,-0.181 ± 0.081
UCGGAGCAAUAUUACGGUAG,-3.8 ± 0.35,-2.8 ± 0.28
UGAGAGCAAUAUUACGUGGA,-3.18 ± 0.28,-2.95 ± 0.47
AUGCAGCAAUAUUACGGUUA,-1.11 ± 0.079,-0.0917 ± 0.071
GUUUAGCAAUAUUACGGGUU,,-2.92 ± 0.35

Sequence,self-splicing fitness (ln) (30 °C),self-splicing fitness (ln) (37 °C)
GCUCAGCAAUAUUACGAAUG,-1.59 ± 0.12,-0.636 ± 0.14
GUCGAGCAAUAUUACGUUAG,-2.95 ± 0.27,-1.2 ± 0.2
GAGAAGCAAUAUUACGCACC,-1.91 ± 0.28,-1.41 ± 0.42
GCAGAGCAAUAUUACGUAUG,-2.86 ± 0.35,-1.4 ± 0.42
CCGGAGCAAUAUUACGUCCG,-3.03 ± 0.37,
GCCCAGCAAUAUUACGGAAC,-1 ± 0.055,-0.0936 ± 0.079
CCACAGCAAUAUUACGUGAA,-2.7 ± 0.072,-1.01 ± 0.082
AAUUAGCAAUAUUACGGAAA,-1.83 ± 0.29,-1.72 ± 0.49
CCGCAGCAAUAUUACGGUCU,-4.37 ± 0.2,-3.65 ± 0.23
CGAAAGCAAUAUUACGUCCU,-0.837 ± 0.11,-0.445 ± 0.13
CACCAGCAAUAUUACGGAUG,-3.11 ± 0.12,-1.84 ± 0.12
AACCAGCAAUAUUACGGGCU,-2.19 ± 0.093,-1.71 ± 0.1
CCGAAGCAAUAUUACGUGGG,-3.82 ± 0.14,-2.39 ± 0.14
UCCGAGCAAUAUUACGAACA,-3.11 ± 0.47,
UGGCAGCAAUAUUACGACGG,-0.817 ± 0.15,0.837 ± 0.17
CAUCAGCAAUAUUACGGAGA,-1.78 ± 0.14,-1.3 ± 0.12
CUGAAGCAAUAUUACGUCGA,-2.2 ± 0.17,-1.57 ± 0.23
UCCGAGCAAUAUUACGCUGA,-2.04 ± 0.12,-1.97 ± 0.14
CAUCAGCAAUAUUACGAAGG,-0.555 ± 0.048,-0.58 ± 0.066
ACGCAGCAAUAUUACGUAGC,-3.47 ± 0.12,-1.89 ± 0.14
AACCAGCAAUAUUACGUGGG,-3.94 ± 0.12,-2.57 ± 0.094
UGACAGCAAUAUUACGGAUU,-2.54 ± 0.094,-2.29 ± 0.13
ACGAAGCAAUAUUACGUAGC,-3.19 ± 0.17,-1.16 ± 0.14
ACCCAGCAAUAUUACGCAGG,-3.07 ± 0.11,-2.48 ± 0.16
